These results are taken from patent US20220356229A1 (published 2022).

The chains are these.
B1: mAb 1585 (antibody, V domains shown)
VH: QVQLVESGGGVVQPGRSLRLSCAASGFTFSRFTLHWVRQAPGKGLEWVAVISYDGSNKYYADSVKGRFTISRDNSKSTLYLQMNSLRAEDTGVYYCARDPSTVTGYFDYWGQGTLVTVSS
VL: SYVLTQPPSVSVAPGKTAKISCGGDSIGSKSVHWYQQKPGQAPVLVIYYDNDRPSGIPERFSGSNSGNTATLTISRVEAGDEADYYCQVWDIGVVFGGGTKLTVLG
notes: human IgG1
B2: mAb 1538 (antibody, V domains shown)
VH: EVQLLESGGGLVQPGGSLRLSCAASGFTFSSYAMSWVRQAPGKGLEWVSGISDSGGSTYYADYVKGRFTISRDNSKDTLYLQMNSLRAEDTAVYYCAKDRGNEYALTHYYYYAMDVWGQGTTVTVSS
VL: DIQMTQSPSSLSASVGDRVTITCRASQSISSYLNWYQQKPGKAPKLLIYAAYSLQSGVPSRFSGGGSGTDFTLTISSLQPEDFATYFCQQSYSTPITFGQGTRLEIKR
notes: human IgG1
B3: anti-SARS-CoV-2 antibody 1495 (antibody, V domains shown)
VH: QVQLVESGGGVVQPGRSLRLSCTASGFTFSSYAMHWVRQAPGKGLEWVAVISYDGNNKYYGDSVKGRFTISRDNSKNTLYLQMNSLRAEDTAVYYCAKGADTPHYSGYHFLSVGYYFYGMDVWGQGTTVTVSS
VL: DIQMTQSPSSLSASVGDRVTITCRASQSISYYLNWYQQKPGKAPQLLIYAASSLQSGVPSRFSGSRSGTDFTLTISSLQPEDFATYYCQQSYSTPFTFGPGTKVDIKR
B4: anti-SARS-CoV-2 antibody 1404 (antibody, V domains shown)
VH: QITLKESGPTLVKPTQTLTLTCTFSGFSLSISGVGVGWLRQPPGKALEWLALIYWDDDKRYSPSLKSRLTISKDTSKNQVVLKMTNIDPVDTATYYCAHHSISTIFDHWGQGTLVTVSS
VL: QSALTQPASVSGSPGQSITISCTATSSDVGDYNYVSWYQQHPGKAPKLMIFEVSDRPSGISNRFSGSKSGNTASLTISGLQAEDEADYYCSSYTTSSAVFGGGTKLTVLG
B5: anti-SARS-CoV-2 antibody 1444 (antibody, V domains shown)
VH: QVQLVQSGAEVKKPGASVKVSCKASGYTFTAYYMHWVRQAPGQGLEWMGWINPNSDDTNYAQKFQGRVTMTRDTSISTAYMELSRLRSDDTAVYYCAREEGVFTIGDRYFDLWGRGTLVSVSS
VL: QTVVTQEPSFSVSPGGTVTLTCGLSSGSVSTSYYPSWYQQTPGQAPRTLIYNTNTRSSGVPDRFSGSILGNKAALTITGAQADDESDYYCVLYMGSGIWVFGGGTKLTVLG
B6: anti-SARS-CoV-2 antibody 894 (antibody, V domains shown)
VH: QVQLVQSGAEVKKPGASVKVSCKVSGYTLPELSIHWVRQAPGKGLEWMGGFDPENAETIYTQKFQGRLTMTEDTSTDTAYMELSSLRSEDTAMYYCATSFVLMPAALGDYSYYYGMDVWGQGTTVTVSS
VL: not shown
B7: anti-SARS-CoV-2 antibody 851 (antibody, V domains shown)
VH: QITLKESGPTLVKPTQTLTLTCTFSGFSLSTNGVGMGWIRQPPGKALEWLALIYWDDDQFYSPSLKSRLTITRDTSKNQVVLTMTNMDPVDTATYYCAQAFYESFGFYSWGQGTLVTVSS
VL: NFMLTQPHSVSESPGKTVIISCTRSIGSIASNYVQWYQQRPGSAPTIVVFEDNERPSGVPDRFSGSIDRSSNSASLTISGLKTEDEADYYCQSYDGSSELVFGGGTKLTVLG
B8: anti-SARS-CoV-2 antibody 896 (antibody, V domains shown)
VH: EVQLVESGGGVVQPGGSLRLSCAASGFTFDDYAMHWVRQVPGKGLEWVSLISGDGGSTYYADSVKGRFTISRDNSKNSLYVQMNSLRTEDTALYYCVKDRGGSGWDLNHYYYGMDVWGQGTTVTVSS
VL: DIQLTQSPSFLSASVGDRVTVTCRASQGISSYLAWYQQKPGKAPKLLIYAAYTLQSGVPSRFSGSGSETEFTLTISSLQPEDFATYYCQQVKSYPLTFGGGTKVEIKR
B9: anti-SARS-CoV-2 antibody 1015 (antibody, V domains shown)
VH: EVQLVESGGGLVQPGGSLRLSCAASGFTFSSYWMHWVRQAPGKGLVWVSHINSDGSSTSYADSVKGRFTISRDNAKNTLYLQMNSLRAEDTAVYYCARGLRYFDLDVWGQGTTVTVSS
VL: QSVLTQPPSVSEAPRQRVTISCSGSSSNIGNNAVNWYQQLPGKAPKLLIFYDDLLPSGVSDRFSGSKSGTSASLAISGLQSEDEADYYCAAWDDSLNGGVFGGGTKLTVLG
B10: anti-SARS-CoV-2 antibody 1075 (antibody, V domains shown)
VH: QVQLVQSGAEVKKPGASVKVSCKVSGYTLIELSMHWVRQAPGKGLEWMGGFDPEDGETIYAQKFQGRVTMTEDTSTDTAYMELSSLRSEDTAVYYCATEWAYYGSGSYLGYWGQGTLVTVSS
VL: EIVMTQSPATLSVSPGERATLSCRASQSVSSNLAWFQQKPGQAPRLLIYGASTRVTVIPARFSGSGSGTEFTLTISSLQSEDFAVYYCQQYNNWPRTFGQGTKVEIKR
B11: anti-coronavirus antibody 560 (antibody, V domains shown)
VH: EVQLVESGGGLVQPGGSLRLSCAASGFTISSNYMSWVRQAPGKGLEWVSVIYSGGSTYYADSVKGRFTISRDNSKNTLYLQMNSLRAEDTAVYYCAREEGEWEKDYYGMDVWGQGTTVTVSS
VL: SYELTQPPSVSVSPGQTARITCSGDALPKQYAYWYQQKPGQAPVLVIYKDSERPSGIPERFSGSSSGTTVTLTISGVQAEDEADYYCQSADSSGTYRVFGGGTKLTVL
B12: anti-coronavirus antibody 546 (antibody, V domains shown)
VH: QVQLVESGGGVVQPGRSLRLSCAASGFTFSSYGMHWVRQAPGKGLEWVAVIWYDGSNKYYADSVKGRFTISRDNSKNTLYLQMNSLRAEDTAVYYCARNCGGDCVAGDGFDYWGQGTLVTVSS
VL: DIQMTQSPSSLSASVGDRVTITCRASQSISSYLNWYQQKPGKAPNLLIYAASSLQSGVPSRFSGSGSGTDFTLTISSLQPEDFATYYCQQSYSALTWTFGQGTKVEIK
B13: anti-coronavirus antibody 563 (antibody, V domains shown)
VH: QVQLVESGGGVVQPGRSLRLSCAASGFTFSSYAMHWVRQAPGKGLEWVAVISDDGSNKYYADSVKGRFTISRDNSKNTLYLQMNSLRAEDTAVYYCARDIVATIRRLFDYWGQGTLVTVSS
VL: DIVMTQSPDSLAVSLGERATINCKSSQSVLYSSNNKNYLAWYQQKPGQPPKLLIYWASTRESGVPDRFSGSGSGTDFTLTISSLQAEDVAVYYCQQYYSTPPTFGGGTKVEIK
B14: anti-coronavirus antibody 545 (antibody, V domains shown)
VH: QVQLVQSGSELKKPGASVKVSCKASGYTFTSYAMNWVRQAPGQGLEWMGWINTNTGNPTYAQGFTGRFVFSLDTSVSTAYLQISVLKAEDTGVYYCARDHELPNSSSWFGHFEYWGQGTLVTVSS
VL: SYELTQPPSVSVSPGQTARITCSGDALPKQYAYWYQQKAGQAPVLVIYKDSERRSGIPERFSGSSSGTTVTLTISGVQAEDEADYYCQSADSSGTSVVFGGGTKLTVL
B15: anti-coronavirus antibody 556 (antibody, V domains shown)
VH: QVQLVESGGGVVQPGRSLRLSCAASGFTFSSYAMHWVRQAPGKGLEWVAVISYDGSDKYYADSVKGRVTISRDNSKNTLYLQMNSLRVEDTAVFYCAKDDCSGGVCFPDYWGQGTLVTVSS
VL: QSALTQPASVSGSPGQSITISCTGTSSDVGGYNYVSWYQQHPGKAPKLMIYEVSIRPSGVSNRFSGSKSGNTASLTISGLQAEDEAAYYCSSYTSSSTLVFGGGTKLTVL
B16: anti-coronavirus antibody 566 (antibody, V domains shown)
VH: QVQLVQSGAEVKKPGASVKVSCKASGYTFTSYAMHWVRQAPGQRLEWMGWINAGNGNTKYSQKFQGRVTITRDTSASTAYMELSSLRSEDTAVYYCARDLGVAVTLHPADFDYWGQGTLVTVSS
VL: QSVLTQPPSVSGAPGQRVTISCTGSSSNIGAGYDVHWYQQLPGTAPKLLIYDNSNRPSGVPDRFSGSKSGTSASLAITGLQAEDEADYYCQSYDSSLSAVVFGGGTKLTVL
B17: anti-coronavirus antibody 571 (antibody, V domains shown)
VH: EVQLVESGGGLVQPGGSLRLSCAASGFTFSTYWMTWVRQAPGKGLEWVANIKHDGSGKYHVDSVKGRFTISRDNAKNSLYLQMNSLRAEDTAVYYCTRDEGGWYDYWGQGTLVTVSS
VL: QSALTQPASVSGSPGQSITISCTGTSSDVGSYNPVSWYQQHPGKAPKVMIYEGSKRPSGVSNRFSGSKSGNTASLTISGLQAEDEADYYCCSYARSSTFVVFGGGTKLTVL
B18: anti-coronavirus antibody 544 (antibody, V domains shown)
VH: QVQLQQWGAGLLKPSETLSLTCAVYGGSFSGYYWSWIRQPPGKGLEWIGEINHSGSTNYNPSLKSRVTISVDTSKNQFSLKLSSVTAADTAVYYCARGFKWFGELLFGAQGTLVTVSS
VL: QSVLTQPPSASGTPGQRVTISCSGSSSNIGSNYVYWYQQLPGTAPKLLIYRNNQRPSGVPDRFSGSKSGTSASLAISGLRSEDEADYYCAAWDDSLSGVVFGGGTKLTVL
B19: anti-coronavirus antibody 548 (antibody, V domains shown)
VH: QVQLVESGGGVVQPGRSLRLSCAASGFTFSSYAMHWVRQAPGKGLEWVAVISYDGSNKYYADSVKGRFTISRDNSKNTLYLQMNNLRAEDTAVYYCAKSGSGSYLSAFDIWGQGTMVTVSS
VL: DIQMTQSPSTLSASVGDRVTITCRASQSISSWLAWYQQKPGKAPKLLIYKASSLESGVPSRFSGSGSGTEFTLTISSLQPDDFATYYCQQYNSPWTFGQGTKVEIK

For the first assay, the target named is SARS-CoV-2 Spike protein (SARS-CoV-2, UniProt P0DTC2 14-1208). The assay can be described thus: HT-SPR (Carterra LSA), mAb coupled to chip, Spike in solution, 1:1 Langmuir fit.
For the molecule B1, the dissociation constant Kd is no more than 0.0171 nM, the koff is no more than 1e-05 s⁻¹ and the on-rate constant (kon) worked out at 586000 M⁻¹ s⁻¹.
As for B2, the Kd was no more than 0.0754 nM, the off-rate (koff) is no more than 1e-05 s⁻¹ and the on-rate (kon) amounted to 133000 M⁻¹ s⁻¹.

Another assay addresses SARS-CoV-2 full length Spike protein, wild type, expressed on CHO cells (SARS-CoV-2, UniProt P0DTC2 14-1273).
Assay: not given
Turning to B3, the “median fluorescence intensity, fold over isotype control” value (from here on “median fluorescence intensity, fold”) is 57.3 fold over isotype.
As to B4, the “median fluorescence intensity, fold” value was 71.2 fold over isotype.
Same read-out and setting: in the case of B5 it was 48.7 fold over isotype.
On the same count and under the same terms, in the case of B6 it was 77.7 fold over isotype; in that of B7, 60 fold over isotype; in that of B8, 70.3 fold over isotype.
Same read-out and setting: as for B9, the figure is 30.5 fold over isotype; as for B10, 78.7 fold over isotype.

In the next assay the target is T1, SARS-CoV full length Spike protein, wild type, expressed on CHO cells (SARS-CoV, UniProt P59594 14-1255).
Assay: not given
Take B3: the “median fluorescence intensity, fold” value was found to be 0.72 fold over isotype.
Still for that read-out and setting: as for B4, the figure is 0.86 fold over isotype; as for B5, 0.77 fold over isotype; as for B6, 0.67 fold over isotype.
Still for that read-out and setting: in the case of B7 it was 0.62 fold over isotype; in that of B8, 0.69 fold over isotype.
As to B9, the “median fluorescence intensity, fold” value worked out at 0.89 fold over isotype.
For the molecule B10, the “median fluorescence intensity, fold” value stood at 0.86 fold over isotype.

In a further assay the target is T1, SARS-CoV full length Spike protein, …. The assay can be described thus: flow cytometry, live cell assay on transfected CHO cells.
For B3, the binding result is recorded as “no binding”.
Same read-out and setting: in the case of B4 it was “no binding”.
Still for that read-out and setting: in the case of B5 it was “no binding”; in that of B6, “no binding”.
B7: the binding result is “no binding”.
Still for that read-out and setting: as for B8, the entry is “no binding”.
On the same count and under the same terms, as for B9, the entry is “no binding”.
Consider B10, for which the binding result was “no binding”.

The next assay deals with SARS-CoV Spike protein (SARS-CoV, UniProt P59594 14-1190).
Assay: not given
In the case of B11, the “binding signal (fold over isotype control)” value was 1.14 fold over isotype control.
Regarding B12, the “binding signal (fold over isotype control)” value is 1.18 fold over isotype control.
The same measure, in the same setting: in the case of B13 it was 35.4 fold over isotype control; in that of B14, 1.13 fold over isotype control.
Still for that read-out and setting: as for B15, the figure is 1.09 fold over isotype control; as for B16, 0.97 fold over isotype control; as for B17, 1.28 fold over isotype control.
Same read-out and setting: in the case of B18 it was 1.05 fold over isotype control; in that of B19, 18.1 fold over isotype control.
